Results published in patent US20060239990A1, “Protein Arginine N-Methyltransferase 2 (PRMT-2)” (priority 2003, published 2006).

B1: mutant PRMT-2: mutated PRMT-2 lacking functional Ado-Met domain (the PRMT-2-4A mutant according to b407) (protein)
chain: MATSGDCPRSESQGEEPAECSEAGLLQEGVQPEEFVAIADYAATDETQLSFLRGEKILILRQTTADWWWGERAGCCGYIPANHVGKHVDEYDPEDTWQDEEYFGSYGTLKLHLEMLADQPRTTKYHSVILQNKESLTDKVAAAAGCGTGIISLFCAHYARPRAVYAVEASEMAQHTGQLVLQNGFADIITVYQQKVEDVVLPEKVDVLVSEWMGTCLLFEFMIESILYARDAWLKEDGVIWPTMAALHLVPCSADKDYRSKVLFWDNAYEFNLSALKSLAVKEFFSKPKYNHILKPEDCLSEPCTILQLDMRTVQISDLETLRGELRFDIRKAGTLHGFTAWFSVHFQSLQEGQPPQVLSTGPFHPTTHWKQTLFMMDDPVPVHTGDVVTGSVVLQRNPVWRRHMSVALSWAVTSRQDPTSQKVGEKVFPIWR
B2: PRMT2-N: generated by introducing a stop codon after amino acid 95 of PRMT-2, SEQ ID NO:4 (protein)
chain: MATSGDCPRSESQGEEPAECSEAGLLQEGVQPEEFVAIADYAATDETQLSFLRGEKILILRQTTADWWWGERAGCCGYIPANHVGKHVDEYDPED
modifications: A synthetic PRMT-2-N polypeptide
B3: PRMT2-A: alternatively spliced form containing the first 218 amino acids of PRMT-2, SEQ ID NO:3 (protein)
chain: MATSGDCPRSESQGEEPAECSEAGLLQEGVQPEEFVAIADYAATDETQLSFLRGEKILILRQTTADWWWGERAGCCGYIPANHVGKHVDEYDPEDTWQDEEYFGSYGTLKLHLEMLADQPRTTKYHSVILQNKESLTDKVILDVGCGTGIISLFCAHYARPRAVYAVEASEMAQHTGQLVLQNGFADIITVYQQKVEDVVLPEKVDVLVSEWMGTCLL
modifications: A synthetic PRMT-2-A mutant polypeptide

Assays:
[1] = system: STAT3; assay: STAT3 arginine methylation in transfected HEK293 cells; type: cell-based; conditions: 24 hr after transfection, α-metR immunoblot
Method: Vascular smooth muscle cells (VSMC) were prepared from the thoracic aorta of 12-week-old-male wild-type and PRMT-2^−/− mice by the explant method. Mouse embryo fibroblasts (MEFs) were prepared from 13.5-day wild-type and PRMT-2^−/− embryos. VSMCs and MEFs were cultured in Dulbecco's modified Eagle's medium (DMEM) containing 10% fetal calf serum (FCS) at 37° C. in a humidified atmosphere of 95% air-5% CO2. The integrity of PRMT-2 expression in the established VSMCs and MEFs lines was confirmed by Western and immunofluorescence analysis (data not shown). Quiescent VSMC (3-5th passages) that had been serum-starved for 48 hr were used in the following experiments. HEK293 cells were also grown in DMEM plus 10% FCS and were transiently transfected with FuGENE6 transfection reagent (Roche Applied Science, Indianapolis, Ind.) according to the manufacture's protocol. For each transfection, 2 μg of expression construct for mouse PRMT-2 and 8 μg for mouse STAT3 were used. After 24-48 hr of transfection, cells were used for the following experiments.
Immunoprecipitation of STAT3 was performed as follows. […]

[2] = system: NF-κB; assay: NF-κB luciferase reporter assay in 293T cells; type: cell-based, human; conditions: for NF-κB activity: 1 μg expression construct, 100 ng 5 κB luciferase reporter; for IKK2- and p65-induced NF-κB activity: κB luciferase reporter, 48 hrs
Method: Cell culture, transfection, and reporter gene assays. The E1A-transformed, human kidney cell line, 293, and NIH-3T3 cells were maintained in Dulbecco's Modified Eagle Medium (DMEM) supplemented with 10% fetal calf serum and penicillin-streptomycin at 37° C. in 5% carbon dioxide in tissue culture grade Petri dishes. PRMT-2−/− mouse embryo fibroblasts (MEFs) and wild type MEFs were prepared from day 13.5 embryos and maintained in DMEM supplemented with 10% fetal calf serum. MEFs at passage 4 were used in this experiment. Lipofectamine Plus™ reagent (Boehringer Mannheim) was used to transfect both 293 and NIH-3T3 cells according to directions from the manufacturer. […] TNF-α stimulation of cells was done using recombinant TNF-α (200 U/ml) for 12 hours. […] CAT assays were performed essentially as described in Leung, K. & Nabel, G. J. Nature 333, 776-778 (1988). To analyze the κB-reporter activity in MEFs, cells were transfected with the reporter (2×kB-Luc) and PRL-TK vector (Promega) using FuGENE6 transfection reagent (Roche). Luciferase activity was analyzed by Dual-Luciferase Reporter Assay System (Promega).
To map the domains responsible for inhibition of HIV transcription, truncation and point mutations were made in PRMT2 (FIG. 1D) and co-transfected with an NF-κB reporter in 293T cells. PRMT2-A represents an alternatively spliced form of PRMT2 found in the expressed sequence tag (EST) database. This isoform contains the first 218 amino acids of PRMT2 and differs from full length PRMT2 by the absence of the less conserved COOH-terminal domain. PRMT2-N was generated by introducing a stop codon after amino acid 95 before the putative Ado-Met domain of PRMT2. To analyze the role of the Ado-Met domain further, another mutant, PRMT2-4A, was prepared in which 141ILDV144 (SEQ ID NO:5) in this region were altered to four consecutive alanines to compare the effects of point mutations in this highly conserved region.
The mechanism and site of action of PRMT2 in the NF-κB signaling pathway was further defined by co-transfection of PRMT2 and its mutants with different regulators in this pathway with an NF-κB reporter in 293T cells (FIG. 2D).

[3] = system: p50/p65 complex; assay: NF-κB DNA binding assay (EMSA); type: biochemical, human; conditions: 293 cells cotransfected with p50 and p65 expression vectors
Method: DNA binding assay. Electrophoretic mobility shift assays (EMSAs) were conducted on 10 μg of nuclear extract protein from 293 cells transiently transfected with pRSV p50/p65 expression constructs and pVR1012 PRMT-2-A/PRMT-2-N expression constructs. A modified Dignam procedure (Dignam et al. Nucleic Acids Res. 11, 1475-1489 (1983)) was used to prepare nuclear extracts from 293 cells. Perkins, N. D. et al. Science 275, 523-527 (1997). NF-KB DNA binding was assayed using a double-stranded 32P-labeled κB probe (Geneka Biotechnology). DNA binding assays were performed as described previously. Perkins et al. Science 275, 523-527 (1997). Supershifting was done using NF-κB p65 (C-20) and NF-κB p50 (H-119) (Santa Cruz). GST-PRMT-2-A fusion proteins were expressed in BL21 (DE3) cells and extracts were prepared as described previously. Smith, D. B. & Johnson, K. S. Gene 67, 31-40 (1988).

[4] = system: IκB-α; assay: Co-immunoprecipitation with endogenous IκB-α in 293 cells; type: binding, human; conditions: HA-tagged constructs in 293 cells
Sequence of IκB-α (P25963 whole entry, the tested form may be a part): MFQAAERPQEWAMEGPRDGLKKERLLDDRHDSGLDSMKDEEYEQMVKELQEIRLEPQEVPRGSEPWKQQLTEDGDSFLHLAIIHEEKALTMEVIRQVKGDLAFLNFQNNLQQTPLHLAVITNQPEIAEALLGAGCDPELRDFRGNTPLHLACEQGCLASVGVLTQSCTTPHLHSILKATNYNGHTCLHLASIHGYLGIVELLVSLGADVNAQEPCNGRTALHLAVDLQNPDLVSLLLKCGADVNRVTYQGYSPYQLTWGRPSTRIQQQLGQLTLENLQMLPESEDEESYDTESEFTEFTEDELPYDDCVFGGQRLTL
Excerpt: A polyclonal antibody to recombinant PRMT2 was used to examine the association between endogenous PRMT2 and IκB-α in vivo. […] The domain of IκB-α required for association with PRMT2 was mapped using in vivo immunoprecipitation assays where HA-tagged PRMT2 was coexpressed with truncation mutants of His-tagged IκB-α (FIG. 5B) in 293 cells. The ankyrin domain was both necessary and sufficient for this association (FIG. 5D, lanes 1 and 2). The domain of PRMT2 that interacted with endogenous IκB-α was mapped by immunoprecipitation following expression HA-tagged PRMT2 truncation mutants (FIG. 5C). […] When the ratios of PRMT2 or PRMT2-A binding to IκB-α were compared, both interacted with IκB-α with similar affinity.

[5] = system: HIV-1, HIV-2, HTLV-1, or HTLV-2 reporter plasmids; assay: CAT reporter assay with viral reporter plasmids in 293 cells; type: cell-based, human
Method: Cell culture, transfection, and reporter gene assays. The E1A-transformed, human kidney cell line, 293, and NIH-3T3 cells were maintained in Dulbecco's Modified Eagle Medium (DMEM) supplemented with 10% fetal calf serum and penicillin-streptomycin at 37° C. in 5% carbon dioxide in tissue culture grade Petri dishes. PRMT-2−/− mouse embryo fibroblasts (MEFs) and wild type MEFs were prepared from day 13.5 embryos and maintained in DMEM supplemented with 10% fetal calf serum. MEFs at passage 4 were used in this experiment. Lipofectamine Plus™ reagent (Boehringer Mannheim) was used to transfect both 293 and NIH-3T3 cells according to directions from the manufacturer. […] TNF-α stimulation of cells was done using recombinant TNF-α (200 U/ml) for 12 hours. Transfected cells were harvested at 36 hours, and CAT activity was assayed on 10 to 100 μg of protein from whole cell extracts. CAT assays were performed essentially as described in Leung, K. & Nabel, G. J. Nature 333, 776-778 (1988). To analyze the κB-reporter activity in MEFs, cells were transfected with the reporter (2×kB-Luc) and PRL-TK vector (Promega) using FuGENE6 transfection reagent (Roche). Luciferase activity was analyzed by Dual-Luciferase Reporter Assay System (Promega). […]

Molecule | Stat3 methylation [1] | NF-κB activity [2] | IKK2- and p65-induced NF-κB activity [2] | NF-κB DNA binding in nuclear extracts of transfected cells [3] | association with endogenous IκB-α [4] | expression from HIV-2 or HTLV reporter plasmids [5] | HIV-1 CAT expression ([5]; HIV-1 reporter plasmid)
B1 | failed to evoke STAT3 methylation |  |  |  |  |  | 
B2 |  | did not | unable to block this effect | did not affect NF-κB DNA binding | did not associate |  | 
B3 |  | inhibited NF-κB activity | inhibited both IKK2- and p65-induced NF-κB activity |  | interacted | No significant reduction | substantially inhibited
